Measured values: patent US20260317389 (published 2026)

Tests used:
[1] = biological target: T1, PD-L1 (human, UniProt Q9NZQ7); experiment: competition, FACS blocking of biotin-PD-1, 4C
[2] = biological target: rhPD-L1 (human, UniProt Q9NZQ7); experiment: ELISA
[3] = biological target: SSTR4 (human, UniProt P31391); experiment: FACS, membrane proteome array titration
[4] = biological target: T1, PD-L1; experiment: FACS, 4C

T1 sequence (Q9NZQ7 19-238): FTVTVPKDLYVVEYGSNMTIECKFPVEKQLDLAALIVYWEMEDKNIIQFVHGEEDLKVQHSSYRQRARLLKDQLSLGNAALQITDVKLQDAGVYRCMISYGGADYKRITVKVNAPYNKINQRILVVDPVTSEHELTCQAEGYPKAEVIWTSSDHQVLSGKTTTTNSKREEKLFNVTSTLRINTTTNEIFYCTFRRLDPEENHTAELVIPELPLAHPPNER
Chain of rhPD-L1 (Q9NZQ7 19-238): as above
Chain of SSTR4 (P31391 whole entry): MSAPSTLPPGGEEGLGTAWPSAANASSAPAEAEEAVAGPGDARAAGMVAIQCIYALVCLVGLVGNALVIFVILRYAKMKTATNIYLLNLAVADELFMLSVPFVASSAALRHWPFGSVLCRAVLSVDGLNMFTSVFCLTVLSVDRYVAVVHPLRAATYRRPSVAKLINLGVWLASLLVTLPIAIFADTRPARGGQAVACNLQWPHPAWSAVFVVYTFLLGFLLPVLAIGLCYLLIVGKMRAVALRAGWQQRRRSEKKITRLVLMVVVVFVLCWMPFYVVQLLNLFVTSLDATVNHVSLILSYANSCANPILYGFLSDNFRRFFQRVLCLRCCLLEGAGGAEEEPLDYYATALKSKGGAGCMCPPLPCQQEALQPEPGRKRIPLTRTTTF

| Binder | EC50 [1] [µg/mL] | Kd [2] [µg/mL] | binding result [3] | Kd [4] [µg/mL] |
| --- | --- | --- | --- | --- |
| TCRC-L8 (antibody, V domains shown) VH: QVQLQESGPGLVKPSETLSLTCTVSGDSITSGYWNWIRQPPGKGLEYMGYISFTGSTYYNPSLKSRVTISVDTSKNQFSLKLSSVTAADTAVYYCARKREWILHPMDYWGQGTLVTVSS VL: AIQLTQSPSSLSASVGDRVTITCSASSSVSYMHWYQQKPGKAPKLWIYDTSKLASGVPSRFSGSGSGTDFTLTISSLQPEDFATYYCFQESGYPLTFGGGTKLTVL | 0.058 | 0.036 | no binding | 0.058 |
| TCRC-L2 (antibody, V domains shown) VH: EVQLQESGPSLVKPSQTLSLTCSVTGDSITSGYWNWIRKFPENKLEYMGYISFTGSTYYNPSLKSRISITRDTSKNQYYLQLNSVTTEDTATYYCARKREWILHPMDYWGQGTSVTVSS VL: ENVLTQSPAIMSASPGEKVTMTCSASSSVSYMHWYQQKSLTSPKLWIYDTSKLASGVPGRFSGSGSGNFYSLTISSMEAEDVATYYCFQESGYPLTFGAGTKLELK | 0.074 | 0.04 | – | 0.074 |
